Laboratory results published in publication PMC6201861, “Generation and characterization of novel recombinant anti-hERG1 scFv antibodies for cancer molecular imaging” (Oncotarget, 2018).

How the values were obtained:
[1] = molecular target: T1, hERG1 potassium channel expressed on hERG1-transfected HEK 293 cells (Homo sapiens (Human)., UniProt Q12809); test: immunostaining of cells or tissue; indirect immunofluorescence on fixed HEK-hERG1 and HEK-Mock cells; settings: one partner purified
T1 construct: human ether-a-go-go-related gene-1 (hERG1, Kv 11.1) potassium channel; cell culture details are in the Supplementary Materials; also called HEK-hERG1; HEK 293 hERG1; source: HEK 293, transfected, on cells
T1 sequence (Q12809 whole entry): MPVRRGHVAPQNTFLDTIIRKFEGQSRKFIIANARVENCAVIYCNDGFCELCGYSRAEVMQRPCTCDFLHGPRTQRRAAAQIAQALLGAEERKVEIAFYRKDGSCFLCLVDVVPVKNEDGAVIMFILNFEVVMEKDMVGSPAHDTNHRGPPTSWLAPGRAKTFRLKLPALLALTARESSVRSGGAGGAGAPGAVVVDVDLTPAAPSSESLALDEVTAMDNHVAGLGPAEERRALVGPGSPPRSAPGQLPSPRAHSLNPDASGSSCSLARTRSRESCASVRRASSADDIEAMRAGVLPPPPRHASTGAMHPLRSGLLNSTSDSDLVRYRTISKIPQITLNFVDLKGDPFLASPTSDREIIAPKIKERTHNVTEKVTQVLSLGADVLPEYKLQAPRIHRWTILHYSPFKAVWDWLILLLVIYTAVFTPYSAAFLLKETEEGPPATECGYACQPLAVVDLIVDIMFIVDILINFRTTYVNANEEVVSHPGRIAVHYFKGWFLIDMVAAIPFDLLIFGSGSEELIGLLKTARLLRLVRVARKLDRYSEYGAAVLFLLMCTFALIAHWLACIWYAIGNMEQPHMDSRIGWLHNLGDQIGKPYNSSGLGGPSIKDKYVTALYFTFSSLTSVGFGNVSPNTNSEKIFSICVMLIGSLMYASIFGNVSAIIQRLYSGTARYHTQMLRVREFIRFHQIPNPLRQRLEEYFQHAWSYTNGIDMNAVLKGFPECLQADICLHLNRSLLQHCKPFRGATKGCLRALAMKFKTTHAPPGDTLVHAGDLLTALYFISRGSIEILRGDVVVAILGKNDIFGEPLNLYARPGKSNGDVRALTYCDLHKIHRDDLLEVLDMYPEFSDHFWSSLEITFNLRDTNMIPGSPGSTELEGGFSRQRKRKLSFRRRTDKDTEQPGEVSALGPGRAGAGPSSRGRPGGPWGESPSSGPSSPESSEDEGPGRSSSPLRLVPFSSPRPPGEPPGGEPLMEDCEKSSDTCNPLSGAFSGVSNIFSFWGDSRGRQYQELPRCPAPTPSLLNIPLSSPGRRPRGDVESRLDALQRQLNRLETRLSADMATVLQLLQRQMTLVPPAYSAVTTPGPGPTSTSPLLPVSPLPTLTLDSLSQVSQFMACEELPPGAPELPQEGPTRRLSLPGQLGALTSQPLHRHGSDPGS

S5-Pore peptide [2] = molecular target: T2, S5-Pore peptide (Homo sapiens (Human).); test: ELISA; S5-Pore peptide as coating antigen; 0.1 to 10 ug of scFv (Alexa488 conjugate at 1 ug); revealed with anti-6xHis antibody then anti-mouse IgG-HRP; OD450; settings: both partners purified
T2 construct: peptide of the extracellular S5-P loop of the human hERG1 (Kv 11.1) potassium channel; also called antigenic peptide; raising peptide
T2 chain: EQPHMDSRIGWLHN

S5-Pore peptide [3] = molecular target: T2, S5-Pore peptide; test: SPR; Biacore T100; S5-Pore peptide amine-coupled to a CM5 chip; scFv flowed at 2.5, 5, 10, 20, 40 ug/ml; contact 120 s, dissociation 600 s, 30 ul/min; 1:1 binding model for scFv-hERG1, two-state reaction model for scFv-hERG1-Cys; settings: both partners purified
[4] = molecular target: T1, hERG1 potassium channel expressed on …; test: immunostaining of cells or tissue; direct immunofluorescence with the Alexa 488 conjugate on fixed cells (HEK-hERG1, HEK-Mock; PANC-1 in 2D and as spheroids); settings: one partner purified
[5] = molecular target: T3, hERG1 potassium channel endogenously expressed on cancer cell lines (Homo sapiens (Human)., UniProt Q12809); test: as above; settings: one partner purified
T3 construct: human ether-a-go-go-related gene-1 (hERG1, Kv 11.1) potassium channel; also called hERG1 on PANC-1 cells; Kv 11.1; source: endogenous, on PANC-1 cells (2D and spheroids); in the viability tests also MDA-MB231, MIAPaCa-2, HCT-116
T3 sequence (Q12809 whole entry): as above

Binder | binding result [1] | fold binding against scFv-hERG1 (ELISA O.D.) (S5-Pore peptide [2]) [fold] | Kd (S5-Pore peptide [3]) [nM] | binding result [4] | binding result [5]
scFv-hERG1-Cys (scFv, V domains shown, numbers count on: Kabat scheme of the VH; as the linker of m1; as the VL of m1; also called mutagenized scFv-hERG1; scFv-Cys; source: P. pastoris GS115 (pPIC9K), purified from culture supernatant (HisTrap HP)) VH: EVQLQQSGPELVKPGASVKISCKTSGYTFTEYTVHWVKQSHGKSLEWIGGINPNGGTTYNQKFKGKATLTIDKSSSSAFMELRSLTSEDSAVYYCATGWGPDYWGQGTTLTVSS VL: not shown | binds | ~2 | 61.8 |  | 
scFv-hERG1-Cys-Alexa488 (scFv, V domains shown, numbers count on: Kabat scheme of the VH; as the linker of m1; as the VL of m1; Same protein as m2, with the fluorophore) VH: EVQLQQSGPELVKPGASVKISCKTSGYTFTEYTVHWVKQSHGKSLEWIGGINPNGGTTYNQKFKGKATLTIDKSSSSAFMELRSLTSEDSAVYYCATGWGPDYWGQGTTLTVSS VL: not shown |  |  |  | binds | binds
